From patent US20140087995A1 (published 2014)
Numbered stars: 1 amine (or outer) side, 2 acyl side, 3 side chain; on linkers, the order of the positions; unused ones are H or OH. Bridge positions count the residues as written; N and C are the ends. Side chains are listed from the residue outwards. Ends that are not written are not given here. * marks the point of attachment. C20 diacid = O=C(O)CCCCCCCCCCCCCCCCCCC(=O)*; γGlu = O=C(O)[C@H](CCC(=O)[*:2])N[*:1]; AEEA = NCCOCCOCC(=O)O

B1: N^ε1-[2-[2-[2-[[(4S)-4-carboxy-4-(19-carboxynonadecanoylamino)butanoyl]amino]ethoxy]ethoxy]acetyl]-[His14,Arg17,Pro21,Pro27]-h-amylin (peptide)
peptide: K([AEEA-γGlu-C20 diacid])CNTATCATQRLAHFLRHSSPNFGAIPSSTNVGSNTY-NH2
modifications: disulfide 2-7; N-terminus assumed
SMILES: CC[C@H](C)[C@H](NC(=O)[C@H](C)NC(=O)CNC(=O)[C@H](Cc1ccccc1)NC(=O)[C@H](CC(N)=O)NC(=O)[C@@H]1CCCN1C(=O)[C@H](CO)NC(=O)[C@H](CO)NC(=O)[C@H](Cc1c[nH]cn1)NC(=O)[C@H](CCCNC(=N)N)NC(=O)[C@H](CC(C)C)NC(=O)[C@H](Cc1ccccc1)NC(=O)[C@H](Cc1c[nH]cn1)NC(=O)[C@H](C)NC(=O)[C@H](CC(C)C)NC(=O)[C@H](CCCNC(=N)N)NC(=O)[C@H](CCC(N)=O)NC(=O)[C@@H](NC(=O)[C@H](C)NC(=O)[C@@H]1CSSC[C@H](NC(=O)[C@@H](N)CCCCNC(=O)COCCOCCNC(=O)CC[C@H](NC(=O)CCCCCCCCCCCCCCCCCCC(=O)O)C(=O)O)C(=O)N[C@@H](CC(N)=O)C(=O)N[C@@H]([C@@H](C)O)C(=O)N[C@@H](C)C(=O)N[C@@H]([C@@H](C)O)C(=O)N1)[C@@H](C)O)C(=O)N1CCC[C@H]1C(=O)N[C@@H](CO)C(=O)N[C@@H](CO)C(=O)N[C@H](C(=O)N[C@@H](CC(N)=O)C(=O)N[C@H](C(=O)NCC(=O)N[C@@H](CO)C(=O)N[C@@H](CC(N)=O)C(=O)N[C@H](C(=O)N[C@@H](Cc1ccc(O)cc1)C(N)=O)[C@@H](C)O)C(C)C)[C@@H](C)O
notes: also called compound 69
B2: N^ε1-[2-[2-[2-(19-carboxynonadecanoylamino)ethoxy]ethoxy]acetyl]-[Arg17,Pro21,Pro27,His34]-h-amylin (peptide)
peptide: K([AEEA-C20 diacid])CNTATCATQRLANFLRHSSPNFGAIPSSTNVGHNTY-NH2
modifications: disulfide 2-7; N-terminus assumed
SMILES: CC[C@H](C)[C@H](NC(=O)[C@H](C)NC(=O)CNC(=O)[C@H](Cc1ccccc1)NC(=O)[C@H](CC(N)=O)NC(=O)[C@@H]1CCCN1C(=O)[C@H](CO)NC(=O)[C@H](CO)NC(=O)[C@H](Cc1c[nH]cn1)NC(=O)[C@H](CCCNC(=N)N)NC(=O)[C@H](CC(C)C)NC(=O)[C@H](Cc1ccccc1)NC(=O)[C@H](CC(N)=O)NC(=O)[C@H](C)NC(=O)[C@H](CC(C)C)NC(=O)[C@H](CCCNC(=N)N)NC(=O)[C@H](CCC(N)=O)NC(=O)[C@@H](NC(=O)[C@H](C)NC(=O)[C@@H]1CSSC[C@H](NC(=O)[C@@H](N)CCCCNC(=O)COCCOCCNC(=O)CCCCCCCCCCCCCCCCCCC(=O)O)C(=O)N[C@@H](CC(N)=O)C(=O)N[C@@H]([C@@H](C)O)C(=O)N[C@@H](C)C(=O)N[C@@H]([C@@H](C)O)C(=O)N1)[C@@H](C)O)C(=O)N1CCC[C@H]1C(=O)N[C@@H](CO)C(=O)N[C@@H](CO)C(=O)N[C@H](C(=O)N[C@@H](CC(N)=O)C(=O)N[C@H](C(=O)NCC(=O)N[C@@H](Cc1c[nH]cn1)C(=O)N[C@@H](CC(N)=O)C(=O)N[C@H](C(=O)N[C@@H](Cc1ccc(O)cc1)C(N)=O)[C@@H](C)O)C(C)C)[C@@H](C)O
notes: also called compound 91

Target: T1, human calcitonin receptor (human, UniProt P30988 25-474)
T1 sequence (looked up): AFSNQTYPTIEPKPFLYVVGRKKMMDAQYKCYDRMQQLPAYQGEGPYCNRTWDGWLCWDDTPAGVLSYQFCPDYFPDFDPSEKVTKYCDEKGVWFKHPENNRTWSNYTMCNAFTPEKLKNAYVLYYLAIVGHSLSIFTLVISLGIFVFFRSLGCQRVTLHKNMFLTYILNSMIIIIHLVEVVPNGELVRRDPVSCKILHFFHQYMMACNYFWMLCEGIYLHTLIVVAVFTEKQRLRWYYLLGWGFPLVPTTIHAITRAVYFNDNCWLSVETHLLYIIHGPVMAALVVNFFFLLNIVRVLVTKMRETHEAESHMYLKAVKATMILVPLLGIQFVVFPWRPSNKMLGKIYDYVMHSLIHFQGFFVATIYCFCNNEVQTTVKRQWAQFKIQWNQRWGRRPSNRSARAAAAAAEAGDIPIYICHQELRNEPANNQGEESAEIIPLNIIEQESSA
Test: cell-based or functional assay

Binder	hCTR funct. EC50 [nM]
B1	1.25
B2	1.48
